The source of these data is the supplement of paper PMC12042874.

± gives the uncertainty stated by the source.

A short description of this series: amyloid nucleation score (Sup35N fusion, yeast selection) (log enrichment); library NNK3; higher = more nucleation; inactive = no reads after selection. The method, boiled down:
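Random libraries were run with three technical output replicates. In each, psi-negative yeast expressing Sup35N fused to peptides of 20 random codons were induced 24 hours with 100 μM copper sulfate and grown 7 days at 30°C on medium lacking adenine and uracil, and input and output plasmid inserts were Illumina-sequenced. The nucleation score is the DiMSum log enrichment of output over input reads, centred on the mode score of non-aggregating sequences, and sequences under 100 input reads were excluded.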
For the substance RVDPTSRMSGIYHWILT, the amyloid nucleation score entry is “inactive”.

On to RVFGGEIRLSRTCVVM, for which the amyloid nucleation score is 1.27 ± 0.17. In the case of RVFHP it was “inactive”.

The substance RVFYCNL showed an amyloid nucleation score of 1.6 ± 0.059. In the case of RVGAVMVEGRFLYHA it was 0.522 ± 0.38. In the case of RVMCTYTRYLWFKFISLMMV it was “inactive”; in that of RVMMSAACHLILCWNWPKWK, “inactive”; in that of RVNRSLGIVSIECRWVVIRG, “inactive”. In the case of RVRNDYLPDRHWFSKHRGTK it was “inactive”; in that of RVRQTFCIW, 1.75 ± 0.11; in that of RVRRGSHCNTFKKSLRLRCA, “inactive”. Consider RVSGEMFASSL, for which the amyloid nucleation score result was “inactive”. In the case of RVSSGSIVTRQHDLN it was “inactive”; in that of RVSWGARVHIWCSLDLVCRF, “inactive”; in that of RVTDLFRRLASNYILSSTTA, “inactive”. With RVTDLRYIKMFVCIILCTGL the entry was “inactive”; with RVTIVPTKHHLML, “inactive”.

Regarding RVVNFFVGVNTNEAMFKRSV, the amyloid nucleation score turned out to be 2.71 ± 0.067.

Take RVVYL: the amyloid nucleation score is -0.667 ± 1.8.

Take RVYMPAAKSINYEPNITRM: the amyloid nucleation score result was “inactive”. In the case of RVYVAWTTCSADKKNSNIMQ it was 0.939 ± 0.12; in that of RWAELTEQTCS, “inactive”. With RWCVM the figure was 0.14 ± 0.56; with RWIFLITILGVLNT, “inactive”; with RWLVT, “inactive”. Take RWNGFVVNTFINTLGRLTKC: the amyloid nucleation score was -0.578 ± 1. Turning to RWWTCSQSNSGVIFEQIYQT, the amyloid nucleation score entry was “inactive”. With RYCNASY the entry was “inactive”; with RYFSFELKLMLISELYVMAV, “inactive”. Consider RYFVT, for which the amyloid nucleation score entry is “inactive”. In the case of RYGIFMEHEIMYHLNPDGFY it was “inactive”; in that of RYKTMRRVTFKHSLNKKWVK, “inactive”; in that of RYNPFRIQELSMLFVLERTL, 0.014 ± 0.71. In the case of RYSESLMFRFKWDDYYRGRV it was -0.307 ± 0.88; in that of RYSRSKIG, “inactive”. With RYTGLMTKLASYYNKISICN the entry was “inactive”. In turn, RYTVSGTLSAYF gave an amyloid nucleation score of -0.112 ± 0.37. In the case of RYYGSFVEPRSFSRN it was “inactive”; in that of SAAGKQLKSRFIGRR, “inactive”; in that of SAASYLTHDVN, “inactive”. With SACECAPTTSRIRPGSSATR the entry was “inactive”. Turning to SADLFVSEYKGIRMTIGNVF, the amyloid nucleation score entry was “inactive”. For the substance SADNLDKFRLEMPVSLVRLN, the amyloid nucleation score entry was “inactive”. In the case of SAGIIFCMKSLVFSFLFITL it was “inactive”; in that of SAIKYPLSRRCMWAGSSLLG, “inactive”. With SAIYLYKYCPSNIITRTLVP the entry was “inactive”. With SALLKWYRYTSAWSGNDVAA the entry was “inactive”; with SALVLPRSVSVDLIGVWDFK, “inactive”; with SANSQYDI, “inactive”. In the case of SANYNSNFR, the amyloid nucleation score entry is “inactive”. Turning to SAPKWGGTYDRVCTISNFTV, the amyloid nucleation score entry is “inactive”. With SAQPESY the entry was “inactive”.

Consider SARISNAVNDSFTGKTMYNK, for which the amyloid nucleation score entry is “inactive”. With SARYWESDRLALIRCHLELR the entry was “inactive”; with SCASAFKKVLVCSNCSGRFS, -0.133 ± 0.66; with SCCGRKMRPGRFEIIDKFCI, 0.523 ± 0.24. With SCDNYVVLTHEFVLSHSKSL the figure was 1.01 ± 0.14. In the case of SCFCMKLSLFYGAIN it was 0.675 ± 0.51; in that of SCGACLKEGRSG, “inactive”; in that of SCGYTLWLYRCEIQRRV, “inactive”. Substance SCHFYTML returned an amyloid nucleation score of 0.237 ± 0.65. Turning to SCKRPVTVWACDQVRYDRFP, the amyloid nucleation score result was “inactive”.

On to SCKVVPCYHVDDMVEL, for which the amyloid nucleation score result was “inactive”. In the case of SCTRIVY it was “inactive”; in that of SCWRNLYSFLRKGSYSRCM, “inactive”. With SCYIEWMVFGSYPL the entry was “inactive”; with SDGVGQLDSDVHSGGGDNRQ, “inactive”; with SDIMNDH, “inactive”. In the case of SDLSCSELEYSHGTNTDWVR it was “inactive”; in that of SDSGLKKV, “inactive”. For the substance SDTLYFVCSVTWQRFYKMID, the amyloid nucleation score entry is “inactive”. With SEAPSSR the entry was “inactive”; with SEGDLKYVW, “inactive”.

Take SEHDDGMVSPKTHTVGSYTC: the amyloid nucleation score result was “inactive”. With SEHMNGWHHNLTQCEENFRN the entry was “inactive”; with SEIKYSYSYMRFLNCTETSN, “inactive”; with SEIVSKVITLQGNICFFGMG, “inactive”. For SEKPIFSHPNLIYENGIGWI, the amyloid nucleation score entry was “inactive”. In the case of SELHK it was “inactive”. In the case of SEMLFIDQLCSSSVSKYTVI it was “inactive”. In the case of SEPLYSVVLSDMDELWHCL it was “inactive”; in that of SESSNTELLSVLYIYAVWYL, “inactive”.

In the case of SETKVIGQLRKTSNSEAHNA, the amyloid nucleation score is 0.422 ± 0.67. As to SEVRSLKHVGLCIQSMGSAL, the amyloid nucleation score entry was “inactive”.

In the case of SEYMNLYTVTTHRTPS, the amyloid nucleation score result was “inactive”. With SFAGYRQIGRQGVWVIQVRH, the amyloid nucleation score entry was “inactive”. In the case of SFCFSNDVA it was “inactive”. In the case of SFDSLVISDTVSRDRCLQII it was “inactive”; in that of SFELVQWDS, “inactive”; in that of SFFEYLPTQPTR, “inactive”.

SFFLDILRVWYYNVPNVPAR: the amyloid nucleation score entry was “inactive”. With SFFPIPIWCD the entry was “inactive”. In the case of SFFTGKAKGFYRQALRTYYR it was -0.093 ± 0.59. As for SFIIVILYGDHALYFTYEAV, the amyloid nucleation score entry is “inactive”. With SFIIYCPVKKPQIVFHRLPS the figure was 2.36 ± 0.056; with SFIVETVDQDVLG, “inactive”; with SFLDMIRCDINLIYKRHRLG, “inactive”. In the case of SFLSWVKYWERSCPDHSIWF it was “inactive”.
